This note sets out measurements from the DeepSol protein solubility set.

The data set in a line: soluble on expression in E. coli; label from the status in PepcDB or PDB records.
Regarding “MAAIAFIGLGQMGSPMASNLLQQGHQLRVFDVNAEAVRHLVDKGATPAANPAQAAKDAEFIITMLPNGDLVRNVLFGENGVCEGLSTDALVIDMSTIHPLQTDKLIADMQAKGFSMMDVPVGRTSANAITGTLLLLAGGTAEQVERATPILMAMGSELINAGGPGMGIRVKLINNYMSIALNALSAEAAVLCEALNLPFDVAVKVMSGTAAGKGHFTTSWPNKVLSGDLSPAFMIDLAHKDLGIALDVANQLHVPMPLGAASREVYSQARAAGRGRQDWSAILEQVRVSAGMTAKVKM”, the “soluble on expression in E. coli” value was “soluble”.

“MAAIKANEQDAVGMIVRKQSEFEENSHNFNNNGPSLSDMPIEVIHNIVDYVDPINILVIRKVCRKLRNVLDGDPKFKDVHLHQPTSLDMNFSLELDDSWVDYRTNGSGSGLGLFRNSISKTKTKIFVLKHENENENENGTNCTYGF”: the “soluble on expression in E. coli” value is reported as “soluble”.

In the case of “MAAMFSNTRSVASSSGHIVEFKAGRSRLEAGSGDTMRKVVAEPKKGLVFIKQSNDMLIHFCWKDRETGAVVDDLIIFPDDAEFKAVPGCPDGKVYMLKFKSGDMKLFWIQDSTPDVDKDLVKKVTDALNKPPTSRPAASRSAGSNANTDRQSAGGSLISSSDMNAPLGGIDQGQLMSLIQSLQGGNSDTLPISSVPRGEDASSEADCEPSTNAAEEGSSNPLSLNNPAIQQIFNNLGRSQKKEVAVSLATALSNETVAEVARNHAEELAPHLPTSDDPARELSETVRTPQFRQAADTLGHALQTGQLGPVVAQFGMDEATVGSANQGDIRGFAANLTKAEGGEDAAKTQNSDDDATREPEPKRNRPDNEDMDVD”, the “soluble on expression in E. coli” value is “not soluble”.

With “MAANFWNSSHYKQLLDPEEVDVVHDLDKERGISIDDFKLIKFHMSNHIMKLAQHIKVRQRVVATAITYMRRVYIRKSMVEFEPRLVALTCLYLASKAEESIVQARNLVFYIKRLYPDEYNKYELKDILGMEMKVLEALDYYLVVFHPYRSLSEFLQDAALNDVNMNQITWGIVNDTYKMDLILVHPPYRIALACIYIASVHREKDITAWFEDLHEDMNLVKNIAMEILDFYENYRTITEEKVNSAFSKLALKL”, the “soluble on expression in E. coli” value is on record as “soluble”.

Regarding “MAAPPSPGRTADQADQVCTFLFKKPGRKGAAGLRKRPACDPEHGESSSSGDEGDTVAQPPRVAPRPRGLHSWQKAAHGDRRGEEAAPESLDVVYRSTRSAKPVGPEDMGATADFEQDTEKEHHTPTILKCSQRVQEALRGREHDHIYRGIHSYLRYLKPKDTSMGNSSSGMARKGPIRAPGHLRATVRWDYQPDICKDYKETGFCGFGDSCKFLHDRSDYKLGWEIERELEEGRYCICEDENHEVGSEEEEIPFRCFICRQAFQNPVVTKCRHYFCESCALEHFRATPRCYICDQPTGGIFNPAKELMAKLQKLQAAEGKKR”, the “soluble on expression in E. coli” value was “soluble”.

Regarding “MAAQATAETPAGELPVIDAVTTHAPEVPPAIDRDYPAKVRVKMETVEKTMKMDDGVEYRYWTFDGDVPGRMIRVREGDTVEVEFSNNPSSTVPHNVDFHAATGQGGGAAATFTAPGRTSTFSFKALQPGLYIYHCAVAPVGMHIANGMYGLILVEPKEGLPKVDKEFYIVQGDFYTKGKKGAQGLQPFDMDKAVAEQPEYVVFNGHVGALTGDNALKAKAGETVRMYVGNGGPNLVSSFHVIGEIFDKVYVEGGKLINENVQSTIVPAGGSAIVEFKVDIPGNYTLVDHSIFRAFNKGALGQLKVEGAENPEIMTQKLSDTAYAVPR”, the “soluble on expression in E. coli” value was “soluble”.

For “MAAQESLHVKTPLRDSMALSKVAGTSVFLKMDSSQPSGSFKIRGIGHLCKMKAKQGCKHFVCSSAGNAGMATAYAARRLGLPATIVVPSTTPALTIERLKNEGATVEVVGEMLDEAIQLAKALEKNNPGWVYISPFDDPLIWEGHTSLVKELKETLSAKPGAIVLSVGGGGLLCGVVQGLREVGWEDVPIIAMETFGAHSFHAAVKEGKLVTLPKITSVAKALGVNTVGAQTLKLFYEHPIFSEVISDQEAVTAIEKFVDDEKILVEPACGAALAAVYSGVVCRLQAEARLQTPLASLVVIVCGGSNISLAQLQALKAQLGLNELLK”, the “soluble on expression in E. coli” value is on record as “soluble”.

Turning to “MAAQLSEIEVKGVKIPLIYEKSTLMPAVNLQIVFTHAGSITDEIPGLASLSARIFNEGTKTLGSVEFAKELENRAISLSVGSGNETLVFDMSALKSEYLEGLRLTRELLRQPNFTKEALSKVKTDIKASLLRKESDFDYVAQVELHRRLFEGTPLEYPSMGNRESIEKITLKEVEEFWKKRGVLRRAIVLVGGDVELEEVKKDLLSLLSVLPLGEEGELVRYEAKGDLEVKSVIKNTQQAYIYFGSPFSVKNLREDSYKAKVAAFVLGSSGFGSRMMEEIRVKRGLAYSAYWRISLSKSVNYSLGYLQTKLENEQQAIGVVRELIEEFLQKGITEKELEGAKQFLLGSEPLRNETLSQRLSSAFSAYYRGLPLDFAKEELHKIEALTLEEINAYIKEHQELLQLSFSVVTAPKE”, the “soluble on expression in E. coli” value is listed as “not soluble”.

As to “MAASEAAVVSSPSLKTDTSPVLETAGTVAAMAATPSARAAAAVVAAAARTGSEARVSKAALATKLLSLSGVFAVHKPKGPTSAELLNRLKEKLLAEAGMPSPEWTKRKKQTLKIGHGGTLDSAARGVLVVGIGSGTKMLTSMLSGSKRYTAIGELGKATDTLDSTGRVTEEKPYDKITQEDIEGILQKFTGNIMQVPPLYSALKKDGQRLSTLMKRGEVVEAKPARPVTVYSISLQKFQPPFFTLDVECGGGFYIRSLVSDIGKELSSCANVLELTRTKQGPFTLEEHALPEDKWTIDDIAQSLEHCSSLFPAELALKKSKPESNEQVLSCEYITLNEPKREDDVIKTC”, the “soluble on expression in E. coli” value is “soluble”.

With “MAASTFFIPSVNVIGADSLTDAMNMMADYGFTRTLIVTDNMLTKLGMAGDVQKALEERNIFSVIYDGTQPNPTTENVAAGLKLLKENNCDSVISLGGGSPHDCAKGIALVAANGGDIRDYEGVDRSAKPQLPMIAINTTAGTASEMTRFCIITDEARHIKMAIVDKHVTPLLSVNDSSLMIGMPKSLTAATGMDALTHAIEAYVSIAATPITDACALKAVTMIAENLPLAVEDGSNAKAREAMAYAQFLAGMAFNNASLGYVHAMAHQLGGFYNLPHGVCNAVLLPHVQVFNSKVAAARLRDCAAAMGVNVTGKNDAEGAEACINAIRELAKKVDIPAGLRDLNVKEEDFAVLATNALKDACGFTNPIQATHEEIVAIYAAR”, the “soluble on expression in E. coli” value was “not soluble”.

In the case of “MAAYQVLIVGAGFSGAETAFWLAQKGVRVGLLTQSLDAVMMPFLPPKPPFPPGSLLERAYDPKDERVWAFHARAKYLLEGLRPLHLFQATATGLLLEGNRVVGVRTWEGPPARGEKVVLAVGSFLGARLFLGGVVEEAGRLSEASYPDLLEDLSRLGFRFVEREGEVPETPSTPGYRVRYLAFHPEEWEEKTFRLKRLEGLYAVGLCVREGDYARMSEEGKRLAEHLLHELG”, the “soluble on expression in E. coli” value is on record as “soluble”.

With “MACCLSEEAREQKRINQEIEKQLQRDKRNARRELKLLLLGTGESGKSTFIKQMRIIHGQGYSEEDKRAHIRLVYQNVFMAIQSMIRAMDTLDIKFGNESEELQEKAAVVREVDFESVTSFEEPYVSYIKELWEDSGIQECYDRRREYQLTDSAKYYLSDLRRLAVPDYLPTEQDILRVRVPTTGIIEYPFDLEQIIFRMVDVGGQRSERRKWIHCFENVTSIMFLVALSEYDQVLVECDNENRMEESKALFRTIITYPWFTNSSVILFLNKKDLLEEKILYSHLADYFPEYDGPPRDPIAAREFILKMFVDLNPDADKIIYSHFTCATDTENIRFVFAAVKDTILQHNLKEYNLV”, the “soluble on expression in E. coli” value is given as “not soluble”.

“MACERLGGQSGAADVDAAAPAMAAVNLTLGFAGKTVLDQVSMGFPARAVTSLMGPTGSGKTTFLRTLNRMNDKVSGYRYSGDVLLGGRSIFNYRDVLEFRRRVGMLFQRPNPFPMSIMDNVLAGVRAHKLVPRKEFRGVAQARLTEVGLWDAVKDRLSDSPFRLSGGQQQLLCLARTLAVNPEVLLLDEPTSALDPTTTEKIEEFIRSLADRLTVIIVTHNLAQAARISDRAALFFDGRLVEEGPTEQLFSSPKHAETARYVAGLSGDVKDAKRGN”: the “soluble on expression in E. coli” value is recorded as “not soluble”.

Take “MACFSSLSTGVLDMYDLIIVGGGPSGASAGRVAGKAGISTLLIEKENFPRYKPCGGALSPYALSCLDFKLPEYLIEKDISRIRVHFRELCTEMQKDYSIALLVSRKAFDNFLLDKARETGIDIHSGEKVLDCEEGEECVEVRTSQNTYLAKFVLIAEGSEGVLKYSVRKRKDRRTEYDLALVSEIPERDKVIRKRFPNAIDMHFGIASGGYGWIFPHSEHYSVGIVGTAEHLKHPKAVMQDFLQANGFSGDFQVHSHIIPVGGIKRKTISSRILLSGDAAGFVDAFIGEGISYAIRSGQLAAENVAEIVLYNRKLSDLKEYETSCRKEFGNFLSSSLKLEKAMHRFPETSFRLALSRKEIIDKYLEEVVINRSHKDYVRWLLLNFSLSEPASKIKSIKDKNQLEHHHHHH”: the “soluble on expression in E. coli” value is reported as “not soluble”.

For “MADEVTIGFRFYPTEEELVSFYLRNQLEGRSDDSMHRVIPVLDVFEVEPSHLPNVAGVRCRGDAEQWFFFVPRQEREARGGRPSRTTGSGYWKATGSPGPVFSKDNKMIGAKKTMVFYTGKAPTGRKTKWKMNEYHAVDETVNASTIPKLRREFSLCRVYITTGSSRAFDRRPEGVLQTERMLTSDVAVAETSFRVESSLETSISGGEHIDVSMNTEFVDGLSEPMWDWEQLTWP”, the “soluble on expression in E. coli” value is on record as “soluble”.

“MADGPDKKRRKLTSALKDAIGAHSQKPEENIEKPIALALISDNKAAQDLLNKIQASRRPQAILEATLKICKEKKSEAHVDEAFLSIFRKHFSILGVDSALACWKLIEEHLNSSESINEIRIANEFISTSNLLGHGFGKLLQNMKQGIPVVIQNTWRQERKADALALAYPFLSLLLADQVYGDHQNLESLAEFWKNQVLPEKSMKKDFGMRMVSALAGGEPGQLPETKIDENQLEMLSKIYENHLEFYTGILSESTCSQLLAKVIEDNLAKNELKQLARRCQTAEVCMSPCIYYAMISVLRSTFDLNDSELIFIENLKTLKLKEITKHLPSIINSCSNTRQITASKKLKNLENLQDFLHNVTEKPENDNFSAAFALLSINISLIFDNWNFCEKILKTLPKDVLEKLIKAGKGSENENILKVFKKVAQEAAPVKFVNRTAADVAEKLREPEFAVAEALSLLQGVHTAETKKEVFDSVVKFVEEIPGAESIDEMKLFKLIIEMYGGSQLESLAVQVVFSRIAADGWTEMDRAPGTEKSDESWFTVLVETIDLLDIAMKSAKNSVLKSFTALFCQLFSQVLKNSQKFVRNSLNAVASRTLSPEMETEFVLRRHKLSQDLARLVDAMKRNESYFAMLTASIIGDAVFYGSDSLLAMSKLHSLADKNASALLATNLPVVERTRYKKFLSTITRASKRIY”: the “soluble on expression in E. coli” value is on record as “not soluble”.

Regarding “MADGQVHDELMMDQQQQQGVVPQQGDIHLSPIDKDLGDAALENNVRQYHLDGVVVSEGMKRMIIDLQRHWLSEYHASREKCLVELTEKLHQEFMMDQQKIRSELLQQFKDELEQTRADLENKHRENLKMESAKLNEKHKRELVASRKKQWCWSCDNEAIYHCCWNTAYCSVECQQGHWQTHRKFCRRKKGNNAPGAPSVPAPQQVGAPMPPQQQ”, the “soluble on expression in E. coli” value is given as “not soluble”.

In the case of “MADHNDRGRQGEEIALKHLRQQGYQIEALNWQSGRRELDIVASTSRELVVVEVKTRTEGFLLAPEEAVDARKRRLISESAHHYVRMYAIDLPVRFDVISVVLSADGSCKRIEHRENAFPLLLKRSQRSTPRRRRL”, the “soluble on expression in E. coli” value is on record as “not soluble”.

As for “MADKKAPAAGWPVANGEYVVGNPESCVAVITLGSHGLDQAAIDAGAAISGPCHTENLGIEKVVANYISNPNIRFMVIAGSEVQGHITGQCIKALYENGIGDDGGIIGAKGAIPFMENVGKEPVGRLQTQVVECIDLIDVEDKGKIADAIKNCISKDPGAFEEDPMVIELEGGAAAAGDESTSIKPTSPEMALLEARMRIVSEKMNEAAMIAKFNSGYYNGK”, the “soluble on expression in E. coli” value is reported as “not soluble”.
